# T1: recombinant human activated Factor VII (FVIIa) (human, UniProt P08709 61-212; P08709 213-466, ten glutamate residues of the Gla domain may be gamma-carboxylated)
# T1 construct: chains tethered by a disulfide bond; also called Factor VIIa; rFVIIa
# T1 sequence 1: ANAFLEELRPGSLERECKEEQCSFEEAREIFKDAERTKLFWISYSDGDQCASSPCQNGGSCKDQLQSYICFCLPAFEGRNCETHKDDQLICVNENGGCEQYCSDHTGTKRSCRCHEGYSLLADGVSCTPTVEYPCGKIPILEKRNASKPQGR
# T1 sequence 2: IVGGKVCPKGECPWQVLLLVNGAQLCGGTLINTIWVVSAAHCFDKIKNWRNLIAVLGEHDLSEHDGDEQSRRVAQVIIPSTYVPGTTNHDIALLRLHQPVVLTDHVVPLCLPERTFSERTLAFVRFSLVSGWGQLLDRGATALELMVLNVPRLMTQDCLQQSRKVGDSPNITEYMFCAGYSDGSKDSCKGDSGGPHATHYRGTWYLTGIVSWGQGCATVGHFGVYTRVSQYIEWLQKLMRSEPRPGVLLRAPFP
# Biological target: T1, recombinant human activated Factor VII …
# Assay: BLI (Fortebio)
# Procedure: All steps were performed in running buffer (20 mM HEPES buffer (pH 7.4), 150 mM NaCl, 5 mM CaCl2, 0.03% Tween 20, 1 mg/ml IgG-free BSA) at […] Antibodies were captured on anti-human tips (AHC, Fortebio) for 3 min at a concentration of 10 ug/ml. This was followed by a 3 min incubation to establish a baseline. Following this, association was monitored for 3 min using four different concentrations of VIIa (25 nm, 50 nM, 100 nM, and 200 nM), followed by a 3 mi dissociation. Sensorgrams were analysed using Fortebio data analysis software.
row,Binder,Kd [nM]
1,"VH SEQ ID NO 626 / VL SEQ ID NO 470 (antibody, IgG4, V domains shown, humanized 11F2; IgG4 S228P/kappa) VH: QVQLQESGPGLVKPSQTLSLTCTVSGYSISSDSAWSWIRQPPGKGLEWIGYIQYSGSTNYNPSLKSRVTISRDTSKNQFSLKLSSVTAADTAVYYCARSVNYYGNSFAVGPWGQGTLVTVSS VL: EIVLTQSPATLSLSPGERATLSCRASQGVSDYLHWYQQKPGQAPRLLIKYASQPATGIPARFSGSGSGTDFTLTISSLEPEDFAVYYCQNGHSFPLTFGQGTKLEIK",1.1
2,"VH SEQ ID NO 314 / VL SEQ ID NO 486 (antibody, IgG4, V domains shown, humanized 11F2; IgG4 S228P/kappa) VH: QVQLQESGPGLVEPSDTLSLTCAVSGYSISSDSAWSWIRQPPGKGLEWIGYIQYSGSTNYNPSLKSRVTMSVDTSKNQFSLKLSSVTALDTAVYYCARSVNYYGNSFAVGPWGQGTLVTVSS VL: EIVLTQSPATLSLSPGERATLSCRASQGVSDYLHWYQQKPGQAPRLLIKYASQPATGIPARFSGSGSGTDFTLTISSLEPEDFGVYYCQNGHSFPLTFGQGTKLEIK",22
3,"VH SEQ ID NO 314 / VL SEQ ID NO 382 (antibody, IgG4, V domains shown, humanized 11F2; IgG4 S228P/kappa) VH: QVQLQESGPGLVEPSDTLSLTCAVSGYSISSDSAWSWIRQPPGKGLEWIGYIQYSGSTNYNPSLKSRVTMSVDTSKNQFSLKLSSVTALDTAVYYCARSVNYYGNSFAVGPWGQGTLVTVSS VL: EIVLTQSPATLSLSPGERATLSCRASQGLSDYLHWYQQKPGEAPRLLIKYASQPATGIPARFSGSGSGTDFTLTISSLEPEDFAVYYCQNGHSFPLTFGQGTKLEIK",27
4,"VH SEQ ID NO 314 / VL SEQ ID NO 462 (antibody, IgG4, V domains shown, humanized 11F2; IgG4 S228P/kappa) VH: QVQLQESGPGLVEPSDTLSLTCAVSGYSISSDSAWSWIRQPPGKGLEWIGYIQYSGSTNYNPSLKSRVTMSVDTSKNQFSLKLSSVTALDTAVYYCARSVNYYGNSFAVGPWGQGTLVTVSS VL: EIVLTQSPATLSLSPGERATLSCRASQGVSDYLHWYQQKPGQAPRLLIKYASQPATGIPARFSGSGSGTDFTLTISSLEPEDFAVYYCQNGHSFPLTFGAGTKLEIK",26
5,"VH SEQ ID NO 314 / VL SEQ ID NO 494 (antibody, IgG4, V domains shown, humanized 11F2; IgG4 S228P/kappa) VH: QVQLQESGPGLVEPSDTLSLTCAVSGYSISSDSAWSWIRQPPGKGLEWIGYIQYSGSTNYNPSLKSRVTMSVDTSKNQFSLKLSSVTALDTAVYYCARSVNYYGNSFAVGPWGQGTLVTVSS VL: EIVLTQSPATLSLSPGERATLSCRASQGVSDYLHWYQQKPGQAPRLLIKYASQPATGIPARFSGSGSGTDFTLTISSLEPEDVAVYYCQNGHSFPLTFGQGTKLEIK",28
6,"VH SEQ ID NO 314 / VL SEQ ID NO 334 (antibody, IgG4, V domains shown, humanized 11F2; IgG4 S228P/kappa) VH: QVQLQESGPGLVEPSDTLSLTCAVSGYSISSDSAWSWIRQPPGKGLEWIGYIQYSGSTNYNPSLKSRVTMSVDTSKNQFSLKLSSVTALDTAVYYCARSVNYYGNSFAVGPWGQGTLVTVSS VL: EIVLTQSPATLSLSPGERATLSCRASQGISDYLHWYQQKPGQAPRLLIKYASQPATGIPARFSGSGSGTDFTLTISSLEPEDFAVYYCQNGHSFPLTFGQGTKLEIK",21
7,"VH SEQ ID NO 314 / VL SEQ ID NO 478 (antibody, IgG4, V domains shown, humanized 11F2; IgG4 S228P/kappa) VH: QVQLQESGPGLVEPSDTLSLTCAVSGYSISSDSAWSWIRQPPGKGLEWIGYIQYSGSTNYNPSLKSRVTMSVDTSKNQFSLKLSSVTALDTAVYYCARSVNYYGNSFAVGPWGQGTLVTVSS VL: EIVLTQSPATLSLSPGERATLSCRASQGVSDYLHWYQQKPGQAPRLLIKYASQPATGIPARFSGSGSGTDFTLTISSLEPEDFAVYYCQQGHSFPLTFGQGTKLEIK",64
8,"VH SEQ ID NO 314 / VL SEQ ID NO 470 (antibody, IgG4, V domains shown, humanized 11F2; IgG4 S228P/kappa) VH: QVQLQESGPGLVEPSDTLSLTCAVSGYSISSDSAWSWIRQPPGKGLEWIGYIQYSGSTNYNPSLKSRVTMSVDTSKNQFSLKLSSVTALDTAVYYCARSVNYYGNSFAVGPWGQGTLVTVSS VL: EIVLTQSPATLSLSPGERATLSCRASQGVSDYLHWYQQKPGQAPRLLIKYASQPATGIPARFSGSGSGTDFTLTISSLEPEDFAVYYCQNGHSFPLTFGQGTKLEIK",20
9,"VH SEQ ID NO 314 / VL SEQ ID NO 342 (antibody, IgG4, V domains shown, humanized 11F2; IgG4 S228P/kappa) VH: QVQLQESGPGLVEPSDTLSLTCAVSGYSISSDSAWSWIRQPPGKGLEWIGYIQYSGSTNYNPSLKSRVTMSVDTSKNQFSLKLSSVTALDTAVYYCARSVNYYGNSFAVGPWGQGTLVTVSS VL: EIVLTQSPATLSLSPGERATLSCRASQGISDYLHWYQQKPGQAPRLLIKYTSQPATGIPARFSGSGSGRDFTLTISSLEPEDFAVYYCQNGHSFPLTFGAGTKLELK",28
10,"VH SEQ ID NO 314 / VL SEQ ID NO 502 (antibody, IgG4, V domains shown, humanized 11F2; IgG4 S228P/kappa) VH: QVQLQESGPGLVEPSDTLSLTCAVSGYSISSDSAWSWIRQPPGKGLEWIGYIQYSGSTNYNPSLKSRVTMSVDTSKNQFSLKLSSVTALDTAVYYCARSVNYYGNSFAVGPWGQGTLVTVSS VL: EIVLTQSPATLSLSPGERATLSCRASQGVSDYLHWYQQKPGQAPRLLIKYTSQPATGIPARFSGSGSGTDFTLTISSLEPEDFAVYYCQNGHSFPLTFGQGTKLEIK",25
11,"VH SEQ ID NO 314 / VL SEQ ID NO 454 (antibody, IgG4, V domains shown, humanized 11F2; IgG4 S228P/kappa) VH: QVQLQESGPGLVEPSDTLSLTCAVSGYSISSDSAWSWIRQPPGKGLEWIGYIQYSGSTNYNPSLKSRVTMSVDTSKNQFSLKLSSVTALDTAVYYCARSVNYYGNSFAVGPWGQGTLVTVSS VL: EIVLTQSPATLSLSPGERATLSCRASQGVSDYLHWYQQKPGEAPRLLIKYASQPATGIPARFSGSGSGTDFTLTISSLEPEDFAVYYCQNGHSFPLTFGQGTKLEIK",32

# Now from value to binder:
row,Kd [nM],Binder
1,0.99,"VH SEQ ID NO 514 / VL SEQ ID NO 318 (antibody, IgG4, V domains shown, humanized 11F2; IgG4 S228P/kappa) VH: QVQLQESGPGLVEPSDTLSLTCAVSGYSITSDSAWSWIRQPPGKKLEWIGYIQYSGSTNYNPSLKSRVTMSRDTSKNQFSLKLSSVTALDTAVYYCARSVNYYGNSFAVGYWGQGTLVTVSS VL: EIVLTQSPATLSLSPGERATLSCRASQGISDYLHWYQQKPGEAPRLLIKYTSQPATGIPARFSGSGSGTDFTLTISSLEPEDFAVYYCQNGHSFPLTFGQGTKLEIK"
2,19,"VH SEQ ID NO 314 / VL SEQ ID NO 350 (antibody, IgG4, V domains shown, humanized 11F2; IgG4 S228P/kappa) VH: QVQLQESGPGLVEPSDTLSLTCAVSGYSISSDSAWSWIRQPPGKGLEWIGYIQYSGSTNYNPSLKSRVTMSVDTSKNQFSLKLSSVTALDTAVYYCARSVNYYGNSFAVGPWGQGTLVTVSS VL: EIVLTQSPATLSLSPGERATLSCRASQGISDYLHWYQQKPGQAPRLLIKYTSQPATGIPARFSGSGSGTDFTLTISSLEPEDFAVYYCQNGHSFPLTFGAGTKLELK"
3,17,"VH SEQ ID NO 314 / VL SEQ ID NO 318 (antibody, IgG4, V domains shown, humanized 11F2; IgG4 S228P/kappa) VH: QVQLQESGPGLVEPSDTLSLTCAVSGYSISSDSAWSWIRQPPGKGLEWIGYIQYSGSTNYNPSLKSRVTMSVDTSKNQFSLKLSSVTALDTAVYYCARSVNYYGNSFAVGPWGQGTLVTVSS VL: EIVLTQSPATLSLSPGERATLSCRASQGISDYLHWYQQKPGEAPRLLIKYTSQPATGIPARFSGSGSGTDFTLTISSLEPEDFAVYYCQNGHSFPLTFGQGTKLEIK"
4,0.94,"VH SEQ ID NO 514 / VL SEQ ID NO 350 (antibody, IgG4, V domains shown, humanized 11F2; IgG4 S228P/kappa) VH: QVQLQESGPGLVEPSDTLSLTCAVSGYSITSDSAWSWIRQPPGKKLEWIGYIQYSGSTNYNPSLKSRVTMSRDTSKNQFSLKLSSVTALDTAVYYCARSVNYYGNSFAVGYWGQGTLVTVSS VL: EIVLTQSPATLSLSPGERATLSCRASQGISDYLHWYQQKPGQAPRLLIKYTSQPATGIPARFSGSGSGTDFTLTISSLEPEDFAVYYCQNGHSFPLTFGAGTKLELK"
5,15,"VH SEQ ID NO 314 / VL SEQ ID NO 326 (antibody, IgG4, V domains shown, humanized 11F2; IgG4 S228P/kappa) VH: QVQLQESGPGLVEPSDTLSLTCAVSGYSISSDSAWSWIRQPPGKGLEWIGYIQYSGSTNYNPSLKSRVTMSVDTSKNQFSLKLSSVTALDTAVYYCARSVNYYGNSFAVGPWGQGTLVTVSS VL: EIVLTQSPATLSLSPGERATLSCRASQGISDYLHWYQQKPGEAPRLLIKYTSQPATGIPARFSGSGSGTDFTLTISSLEPEDFGVYYCQNGHSFPLTFGAGTKLELK"
6,18,"VH SEQ ID NO 314 / VL SEQ ID NO 358 (antibody, IgG4, V domains shown, humanized 11F2; IgG4 S228P/kappa) VH: QVQLQESGPGLVEPSDTLSLTCAVSGYSISSDSAWSWIRQPPGKGLEWIGYIQYSGSTNYNPSLKSRVTMSVDTSKNQFSLKLSSVTALDTAVYYCARSVNYYGNSFAVGPWGQGTLVTVSS VL: EIVLTQSPATLSLSPGERATLSCRASQGISDYLHWYQQKPGQAPRLLIKYTSQPATGIPARFSGSGSGTDFTLTISSLEPEDFAVYYCQNGHSFPLTFGQGTKLEIK"
7,3.1,"VH SEQ ID NO 514 / VL SEQ ID NO 310 (antibody, IgG4, V domains shown, humanized 11F2; IgG4 S228P/kappa) VH: QVQLQESGPGLVEPSDTLSLTCAVSGYSITSDSAWSWIRQPPGKKLEWIGYIQYSGSTNYNPSLKSRVTMSRDTSKNQFSLKLSSVTALDTAVYYCARSVNYYGNSFAVGYWGQGTLVTVSS VL: EIVLTQSPATLSLSPGERATLSCRASQGISDYLAWYQQKPGQAPRLLIKYASQPATGIPARFSGSGSGTDFTLTISSLEPEDFAVYYCQNGHSFPLTFGQGTKLEIK"
8,1.1,"VH SEQ ID NO 514 / VL SEQ ID NO 334 (antibody, IgG4, V domains shown, humanized 11F2; IgG4 S228P/kappa) VH: QVQLQESGPGLVEPSDTLSLTCAVSGYSITSDSAWSWIRQPPGKKLEWIGYIQYSGSTNYNPSLKSRVTMSRDTSKNQFSLKLSSVTALDTAVYYCARSVNYYGNSFAVGYWGQGTLVTVSS VL: EIVLTQSPATLSLSPGERATLSCRASQGISDYLHWYQQKPGQAPRLLIKYASQPATGIPARFSGSGSGTDFTLTISSLEPEDFAVYYCQNGHSFPLTFGQGTKLEIK"

# Source: patent US20220064329A1 (Novo Nordisk, published 2022)
